These results are taken from paper PMC11461821, “Structure of a Rhs effector clade domain provides mechanistic insights into type VI secretion system toxin delivery” (Nature Communications, 2024).

T1: Tse15 central Rhs domain (residues 335-1395) (Acinetobacter baumannii (strain …, UniProt A0A5K6CSR3 335-1395))
T1 construct: Tse15, A. baumannii AB307-0294, central Rhs domain, residues 335-1395; also called Rhs cage; β-cocoon
T1 sequence: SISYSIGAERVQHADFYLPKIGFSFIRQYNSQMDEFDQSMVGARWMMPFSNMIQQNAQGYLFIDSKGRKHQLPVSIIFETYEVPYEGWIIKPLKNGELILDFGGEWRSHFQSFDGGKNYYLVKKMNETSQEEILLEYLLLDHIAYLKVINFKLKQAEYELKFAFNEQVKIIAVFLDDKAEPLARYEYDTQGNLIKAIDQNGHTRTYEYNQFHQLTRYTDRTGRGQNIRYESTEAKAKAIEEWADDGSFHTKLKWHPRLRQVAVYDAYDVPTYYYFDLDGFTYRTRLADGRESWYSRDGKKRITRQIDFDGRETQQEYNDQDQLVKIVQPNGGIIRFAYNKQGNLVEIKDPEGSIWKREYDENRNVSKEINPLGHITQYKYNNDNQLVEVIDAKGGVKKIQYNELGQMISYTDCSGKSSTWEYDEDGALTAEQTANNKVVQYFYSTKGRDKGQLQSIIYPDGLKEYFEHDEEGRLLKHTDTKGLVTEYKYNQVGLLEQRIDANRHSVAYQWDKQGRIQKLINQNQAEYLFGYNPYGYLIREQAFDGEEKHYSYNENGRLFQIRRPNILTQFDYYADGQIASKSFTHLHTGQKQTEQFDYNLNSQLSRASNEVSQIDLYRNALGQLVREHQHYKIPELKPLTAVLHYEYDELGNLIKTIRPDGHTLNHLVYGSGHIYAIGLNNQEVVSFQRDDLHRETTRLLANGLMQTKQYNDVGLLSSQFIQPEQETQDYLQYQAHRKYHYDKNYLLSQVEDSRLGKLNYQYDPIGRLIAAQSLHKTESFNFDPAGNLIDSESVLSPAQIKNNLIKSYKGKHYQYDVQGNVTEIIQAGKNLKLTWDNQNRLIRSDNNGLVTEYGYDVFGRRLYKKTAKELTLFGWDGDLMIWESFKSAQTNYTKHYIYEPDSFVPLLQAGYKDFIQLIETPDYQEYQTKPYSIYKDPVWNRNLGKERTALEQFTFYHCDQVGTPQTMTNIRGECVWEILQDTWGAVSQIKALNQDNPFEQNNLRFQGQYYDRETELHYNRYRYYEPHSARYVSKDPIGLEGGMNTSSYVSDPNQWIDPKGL

B1: Tse15 toxic C-terminal domain (residues 1396-1590) (domain or fragment)
chain: NSFNYGEMFGIPASAQSGLAYQGQRNYECYAETGELCKIKVPPLFDYVACSGGGLGIGVGFVKNQWTGEYYISGSKDSLLIPVAKSVAQNKQFSAKDLAGASCVGGNIHNIPSYTKTTMTMGEITNEFVSGASVTVGGGAYGAVANVVVPLVSKSSPVKGTWASELGVGTPGFNVGVSGTVSVDTILDAVKPSKK
notes: Tse15, A. baumannii AB307-0294, toxic CTD, residues 1396-1590; also called CTD; toxin domain; not shown: His6, C-terminal, kept
B2: Tse15 N-terminal clade domain (residues 1-334) (domain or fragment)
chain: MAKENTQQKEIKRQPAVELAVFNLNSVTDVADLQMIASQVQLYLQVCGNTTLEQIKSKANITTVANIFALTGSVLDLMLYATDKKTGDAAVQRGALLAANLIGLFSEPNNEAHARMALRPMFGLMAECLYRENGKIKETDIKRLGLHLNAMIAGDLENFLKETQAKLSSLLISATTLGVTILQSMATPATGINAGITTAAGASAEKRDPKLKFTNWAVPLIDLLGKPSQANLTPKIQPNITSRLQQEATQAIAALSQTLQQQANAGQKYTLAWLLQETLKAIQALENKGNASVPINQTGEYERHTKGDTLEFVSLQADALNAPPCEGADSQSGK
notes: Tse15, A. baumannii AB307-0294, N-terminal clade domain, residues 1-334; Residues 14-333 are modelled in the structure; also called N-terminal clade-specific domain; not shown: StrepTag-II, N-terminal, kept

Assay [1] has as its target T1, Tse15 central Rhs domain (residues …). Kind of assay: pull-down + SEC; nickel affinity (HisTrap HP) from E. coli lysate by the His tag that only the CTD carries, then analytical size-exclusion (Superdex200 10/300 GL Increase, 50 mM Hepes pH 8.0, 0.3 M NaCl); fragments identified by SDS-PAGE, Western blot, peptide fingerprinting and N-terminal sequencing. The settings on record: partners not purified.

Assay [2] deals with B2. The description is as above. The settings on record: partners not purified.
Assay [3] deals with T1, Tse15 central Rhs domain (residues …). Kind of assay: cryo-EM structure; single particle cryo-EM of purified protein, 3 mg/mL, UltrAuFoil grids; Tse15 at 200 kV (Talos Arctica), Tse15NN at 300 kV (Titan Krios). The following applies: both partners purified.

With B1, the binding result in assay [1] and in assay [2] was “binds” each time.

Regarding B2, the binding result in assay [3] is listed as “binds”.
